Measurements taken from publication PMC5342242, “Altering the N-terminal arms of the polymerase manager protein UmuD modulates protein interactions” (PLoS ONE, 2017).

Legend:
[1] = molecular target: the molecule itself; test: cross-linking; 10 mM bis(maleimido)hexane (BMH), 40 μM protein, 10 min at room temperature; cross-linked dimers seen by Coomassie-stained SDS-PAGE
[2] = molecular target: T1, DNA polymerase III α subunit truncation α917–1160 (E. coli, UniProt P10443 917-1160); test: other fluorescence titration; intrinsic tryptophan fluorescence of α; UmuD titrated into a solution of α; equilibrium Kd; settings: both partners purified
T1 construct: α polymerase subunit of DNA polymerase III, E. coli, residues 917–1160; also called C-terminal fragment of α; source: described previously [21]
T1 sequence (P10443 917-1160): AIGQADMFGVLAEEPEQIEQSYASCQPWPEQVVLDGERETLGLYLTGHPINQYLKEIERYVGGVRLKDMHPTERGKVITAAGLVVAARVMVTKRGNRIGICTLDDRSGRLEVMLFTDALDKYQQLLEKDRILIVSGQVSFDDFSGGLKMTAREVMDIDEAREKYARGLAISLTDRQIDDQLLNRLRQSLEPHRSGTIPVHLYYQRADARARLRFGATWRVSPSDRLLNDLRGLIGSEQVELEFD

[3] = molecular target: T2, DNA polymerase III α subunit, full-length (E. coli, UniProt P10443 1-1160, in the FRET assay only: labeled with Alexa Fluor 647 C2-maleimide); test: as above; settings: both partners purified
T2 construct: α polymerase subunit of DNA polymerase III, E. coli, full-length; Unlabelled in the tryptophan fluorescence titration; also called pol III α; full-length α; source: purified; as previously described [21]
T2 sequence (P10443 whole entry): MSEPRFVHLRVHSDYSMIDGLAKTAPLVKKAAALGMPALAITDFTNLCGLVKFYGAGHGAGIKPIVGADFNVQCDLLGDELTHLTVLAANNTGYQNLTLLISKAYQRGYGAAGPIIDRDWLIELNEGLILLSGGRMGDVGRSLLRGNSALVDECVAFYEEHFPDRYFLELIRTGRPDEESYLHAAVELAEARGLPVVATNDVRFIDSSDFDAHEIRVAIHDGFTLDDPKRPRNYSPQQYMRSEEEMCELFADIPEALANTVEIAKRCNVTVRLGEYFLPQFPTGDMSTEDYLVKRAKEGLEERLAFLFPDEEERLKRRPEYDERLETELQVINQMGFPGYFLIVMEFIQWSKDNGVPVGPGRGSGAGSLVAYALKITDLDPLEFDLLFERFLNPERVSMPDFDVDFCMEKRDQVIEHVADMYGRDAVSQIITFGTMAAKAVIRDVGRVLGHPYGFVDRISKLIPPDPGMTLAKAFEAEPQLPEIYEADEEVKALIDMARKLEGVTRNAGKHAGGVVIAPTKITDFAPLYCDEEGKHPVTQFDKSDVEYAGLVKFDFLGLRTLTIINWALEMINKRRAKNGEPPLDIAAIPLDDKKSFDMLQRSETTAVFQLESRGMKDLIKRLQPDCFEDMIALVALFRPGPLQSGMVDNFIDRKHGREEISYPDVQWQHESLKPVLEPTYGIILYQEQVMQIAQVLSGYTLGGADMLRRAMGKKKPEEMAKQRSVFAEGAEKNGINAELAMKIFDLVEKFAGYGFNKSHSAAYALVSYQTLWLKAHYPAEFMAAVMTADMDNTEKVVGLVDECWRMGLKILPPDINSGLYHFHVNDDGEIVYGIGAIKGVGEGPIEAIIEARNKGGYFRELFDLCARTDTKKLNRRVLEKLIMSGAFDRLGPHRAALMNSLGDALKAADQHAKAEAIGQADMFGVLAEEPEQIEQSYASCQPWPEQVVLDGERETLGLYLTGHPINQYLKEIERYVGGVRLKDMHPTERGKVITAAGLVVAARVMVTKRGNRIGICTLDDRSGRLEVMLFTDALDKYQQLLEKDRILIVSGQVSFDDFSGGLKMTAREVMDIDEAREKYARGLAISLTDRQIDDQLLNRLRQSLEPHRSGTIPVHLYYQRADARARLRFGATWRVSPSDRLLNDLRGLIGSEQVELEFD

[4] = molecular target: T3, DNA polymerase III α subunit truncation α1–280 (E. coli, UniProt P10443 1-280); test: as above; settings: both partners purified
T3 construct: α polymerase subunit of DNA polymerase III, E. coli, residues 1–280; also called N-terminal domain of α; PHP domain; source: described previously [21]
T3 sequence (P10443 1-280): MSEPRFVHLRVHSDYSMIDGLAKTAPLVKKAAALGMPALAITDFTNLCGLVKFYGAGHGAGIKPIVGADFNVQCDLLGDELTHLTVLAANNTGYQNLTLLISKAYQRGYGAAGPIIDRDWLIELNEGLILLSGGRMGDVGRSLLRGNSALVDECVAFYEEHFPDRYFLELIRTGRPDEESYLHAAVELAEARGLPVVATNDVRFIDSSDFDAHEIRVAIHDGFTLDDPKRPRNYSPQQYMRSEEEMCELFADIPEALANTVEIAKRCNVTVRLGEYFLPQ

B1: UmuD 3A (natural protein, E. coli, UniProt P0AG11 1-139, looked up)
chain: MLFIKPADLREIVAFPAASDLVQCGFPSPAADYVEQRIDLNQLLIQHPSATYFVKASGDSMIDGGISDGDLLIVDSAITASHGDIVIAAVDGEFTVKKLQLRPTVQLIPMNSAYSPITISSEDTLDVFGVVIHVVKAMR
notes: UmuD, E. coli, full-length arms, three alanine mutations T14A L17A F18A; also called UmuD T14A L17A F18A; source: purified; not further stated
B1 was tested, and the percent cross-linked dimers [1] was 41%.

B2: wild-type UmuD (natural protein, E. coli, UniProt P0AG11 1-139, looked up)
chain: MLFIKPADLREIVTFPLFSDLVQCGFPSPAADYVEQRIDLNQLLIQHPSATYFVKASGDSMIDGGISDGDLLIVDSAITASHGDIVIAAVDGEFTVKKLQLRPTVQLIPMNSAYSPITISSEDTLDVFGVVIHVVKAMR
notes: UmuD, E. coli, full-length, 139 residues; also called WT UmuD; full-length UmuD; source: purified; expression from pSG5 as previously described [33, 34]
Binder B2 has a percent cross-linked dimers [1] of 25%.

B3: UmuD S60A C24A A7C (natural protein, E. coli, UniProt P0AG11 1-139, looked up)
chain: MLFIKPCDLREIVTFPLFSDLVQAGFPSPAADYVEQRIDLNQLLIQHPSATYFVKASGDAMIDGGISDGDLLIVDSAITASHGDIVIAAVDGEFTVKKLQLRPTVQLIPMNSAYSPITISSEDTLDVFGVVIHVVKAMR
notes: UmuD, E. coli, with the full-length arm; single cysteine moved from position 24 to position 7; S60A; also called UmuD A7C C24A S60A; source: purified; not further stated
B3 showed a percent cross-linked dimers [1] of 71%.

B4: UmuD S60A (natural protein, E. coli, UniProt P0AG11 1-139, looked up)
chain: MLFIKPADLREIVTFPLFSDLVQCGFPSPAADYVEQRIDLNQLLIQHPSATYFVKASGDAMIDGGISDGDLLIVDSAITASHGDIVIAAVDGEFTVKKLQLRPTVQLIPMNSAYSPITISSEDTLDVFGVVIHVVKAMR
notes: UmuD, E. coli, full-length 139 residues, non-cleavable active-site variant S60A; also called full-length UmuD-S60A; active site variant UmuD S60A; source: purified; expression from pSG5 as previously described [33, 34]
B4 showed a percent cross-linked dimers [1] of 31%.

B5: UmuD 8 S60A (domain or fragment, E. coli, UniProt P0AG11 8-139, looked up)
chain: DLREIVTFPLFSDLVQCGFPSPAADYVEQRIDLNQLLIQHPSATYFVKASGDAMIDGGISDGDLLIVDSAITASHGDIVIAAVDGEFTVKKLQLRPTVQLIPMNSAYSPITISSEDTLDVFGVVIHVVKAMR
notes: UmuD, E. coli, lacking the N-terminal 7 residues (Δ1–7) of the 139-residue full-length protein; non-cleavable active-site variant S60A; Plasmid pSG5 derivative; also called UmuD Δ1–7 S60A; source: constructed in pSG5, expressed and purified as previously described [33, 34]
Binder B5 has a percent cross-linked dimers [1] of 32%, a Kd [2] of 200 ± 400 nM and a Kd [3] of 8.1 ± 0.9 µM. It also gave a Kd [4] of 3.5 ± 0.8 µM.

B6: UmuD 18 S60A (domain or fragment, E. coli, UniProt P0AG11 18-139, looked up)
chain: FSDLVQCGFPSPAADYVEQRIDLNQLLIQHPSATYFVKASGDAMIDGGISDGDLLIVDSAITASHGDIVIAAVDGEFTVKKLQLRPTVQLIPMNSAYSPITISSEDTLDVFGVVIHVVKAMR
notes: UmuD, E. coli, lacking the N-terminal 17 residues (Δ1–17) of the 139-residue full-length protein; non-cleavable active-site variant S60A; Plasmid pSG5 derivative; also called UmuD Δ1–17 S60A; source: constructed in pSG5, expressed and purified as previously described [33, 34]
Binder B6 has a percent cross-linked dimers [1] of 39%, a Kd [2] of 3600 ± 400 nM and a Kd [3] of 12.2 ± 0.2 µM. It also gave a Kd [4] of 5.9 ± 0.9 µM.
